Source: patent US7052908B2, “Androgen receptor coactivators” (University of Rochester, priority 1998, dated 2006)

Experiments:
AR [1] = test: Mammalian two-hybrid assay with CAT reporter in DU145 cells; assay type: cell-based, human
Text: The mammalian two-hybrid system employed was essentially the protocol of Clontech (California), with the following modifications. […] The hinge and LBD of wtAR were then inserted into pGAL0. Similarly, the VP16 activation domain was fused to pCMX under the control of a CMV promoter, and designated pCMX-VP16 (provided by Dr. R. M. Evan).

wtAR = target: T1, wtAR (Homo sapiens, UniProt P10275); test: AR transactivation, transient transfection with MMTV-CAT reporter in DU145 cells; conditions: for AR transcriptional activity induction with cotransfected coactivator: wild type AR, 1 nM DHT, DU145, from 5-fold without coactivator
T1 sequence (P10275 1-920): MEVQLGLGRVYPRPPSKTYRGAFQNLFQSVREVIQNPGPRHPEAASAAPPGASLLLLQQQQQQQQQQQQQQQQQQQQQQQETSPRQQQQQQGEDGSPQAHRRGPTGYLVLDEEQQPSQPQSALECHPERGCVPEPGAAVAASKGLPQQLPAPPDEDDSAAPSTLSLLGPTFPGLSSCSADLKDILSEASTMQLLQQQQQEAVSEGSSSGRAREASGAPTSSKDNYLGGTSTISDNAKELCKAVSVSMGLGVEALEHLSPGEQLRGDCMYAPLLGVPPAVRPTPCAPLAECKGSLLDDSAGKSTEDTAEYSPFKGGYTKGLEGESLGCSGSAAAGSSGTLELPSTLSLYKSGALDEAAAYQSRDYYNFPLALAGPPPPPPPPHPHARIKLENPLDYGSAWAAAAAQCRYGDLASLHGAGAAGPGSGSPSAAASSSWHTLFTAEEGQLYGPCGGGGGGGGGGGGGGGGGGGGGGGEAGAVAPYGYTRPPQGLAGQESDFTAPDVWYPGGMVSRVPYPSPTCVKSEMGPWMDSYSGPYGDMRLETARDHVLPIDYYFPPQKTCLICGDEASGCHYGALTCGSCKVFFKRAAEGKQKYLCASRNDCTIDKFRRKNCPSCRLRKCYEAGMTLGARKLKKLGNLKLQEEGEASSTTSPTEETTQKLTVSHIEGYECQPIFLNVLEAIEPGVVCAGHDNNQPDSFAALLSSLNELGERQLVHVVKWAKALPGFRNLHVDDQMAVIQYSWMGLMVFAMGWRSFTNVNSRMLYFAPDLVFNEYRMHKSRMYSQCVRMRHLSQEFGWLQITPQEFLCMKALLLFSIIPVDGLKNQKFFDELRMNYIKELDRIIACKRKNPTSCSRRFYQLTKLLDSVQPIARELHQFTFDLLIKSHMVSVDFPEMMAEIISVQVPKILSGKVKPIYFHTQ

ARA55 mRNA = test: Northern blot of ARA55 mRNA in PC3 cells; assay type: cell-based, human; conditions: TGFβ 5 ng/ml
Method: The total RNA (25 μg) was fractionated on a 1% formaldehyde-MOPS agarose gel, transferred onto a Hybond-N nylon membrane (Amersham) and prehybridized. A probe corresponding to the 900 bp C-terminus of ARA55 or an ARA54-specific sequence was ^32P-labeled in vitro using Random Primed DNA Labeling Kit (Boehringer-Mannheim) according to the manufacture's protocol and hybridized overnight. After washing, the blot was exposed and quantified by Molecular Dynamics PhosphorImager. β-actin was used to monitor the amount of total RNA in each lane.

AR [2] = target: T2, AR (Homo sapiens, UniProt P10275); test: AR transcriptional activity (MMTV-CAT) in PC3 cells; conditions: TGFβ treatment
T2 sequence (P10275 1-920): T1 sequence (P10275 1-920)

mARt877s = test: AR transactivation, transient transfection CAT reporter assay, mutant AR; assay type: cell-based, human
estrogen receptor (ER) = target: T3, estrogen receptor (ER) (Homo sapiens, UniProt P03372); test: Steroid receptor transactivation, ERE-CAT reporter in DU145 cells; assay type: cell-based; conditions: DU145 cells
T3 construct: expressed in transfected cells; host or cells: DU145
T3 sequence (P03372 1-595): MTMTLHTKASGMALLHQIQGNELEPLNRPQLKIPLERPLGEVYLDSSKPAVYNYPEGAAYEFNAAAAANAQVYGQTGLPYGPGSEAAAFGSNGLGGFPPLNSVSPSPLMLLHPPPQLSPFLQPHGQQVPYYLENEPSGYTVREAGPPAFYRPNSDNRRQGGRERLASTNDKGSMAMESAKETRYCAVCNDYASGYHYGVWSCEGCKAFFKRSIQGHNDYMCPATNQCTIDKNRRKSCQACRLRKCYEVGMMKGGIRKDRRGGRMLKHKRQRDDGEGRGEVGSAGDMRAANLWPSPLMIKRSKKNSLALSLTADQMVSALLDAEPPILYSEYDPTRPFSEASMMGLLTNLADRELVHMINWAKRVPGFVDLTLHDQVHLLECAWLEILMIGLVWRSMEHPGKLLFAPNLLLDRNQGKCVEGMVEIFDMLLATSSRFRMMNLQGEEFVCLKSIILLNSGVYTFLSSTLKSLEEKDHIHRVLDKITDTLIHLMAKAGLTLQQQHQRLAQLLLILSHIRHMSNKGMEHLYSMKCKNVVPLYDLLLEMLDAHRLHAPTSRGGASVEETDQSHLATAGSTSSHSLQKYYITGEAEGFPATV

[3] = target: T4, progesterone receptor (PR) (Homo sapiens, UniProt P06401); test: Steroid receptor transactivation, MMTV-CAT reporter in DU145 cells; assay type: cell-based; conditions: DU145 cells, cognate ligand
T4 construct: expressed in transfected cells; host or cells: DU145
T4 sequence (P06401 1-933): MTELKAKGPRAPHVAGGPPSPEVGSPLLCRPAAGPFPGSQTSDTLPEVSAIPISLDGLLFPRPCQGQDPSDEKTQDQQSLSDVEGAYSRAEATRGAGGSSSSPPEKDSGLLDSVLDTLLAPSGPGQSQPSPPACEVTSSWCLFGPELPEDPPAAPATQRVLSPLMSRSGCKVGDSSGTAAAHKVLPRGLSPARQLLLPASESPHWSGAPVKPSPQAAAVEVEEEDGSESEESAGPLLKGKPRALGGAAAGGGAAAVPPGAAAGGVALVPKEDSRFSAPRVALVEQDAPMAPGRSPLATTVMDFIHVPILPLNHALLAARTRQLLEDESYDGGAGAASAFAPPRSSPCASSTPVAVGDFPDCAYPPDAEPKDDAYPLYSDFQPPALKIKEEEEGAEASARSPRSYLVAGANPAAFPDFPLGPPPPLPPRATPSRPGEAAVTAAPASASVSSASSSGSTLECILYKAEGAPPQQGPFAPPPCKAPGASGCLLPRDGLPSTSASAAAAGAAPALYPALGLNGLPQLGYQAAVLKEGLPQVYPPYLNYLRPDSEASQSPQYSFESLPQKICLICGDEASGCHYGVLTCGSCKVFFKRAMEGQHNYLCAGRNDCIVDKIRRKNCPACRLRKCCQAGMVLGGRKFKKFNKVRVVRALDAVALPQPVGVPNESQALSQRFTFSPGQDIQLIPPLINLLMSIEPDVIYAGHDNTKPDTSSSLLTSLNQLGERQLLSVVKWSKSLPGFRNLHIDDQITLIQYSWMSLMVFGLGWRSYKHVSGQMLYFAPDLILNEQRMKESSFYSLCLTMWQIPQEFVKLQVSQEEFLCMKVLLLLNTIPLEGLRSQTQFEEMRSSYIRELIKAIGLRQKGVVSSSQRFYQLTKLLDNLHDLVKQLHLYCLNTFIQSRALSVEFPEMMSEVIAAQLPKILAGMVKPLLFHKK

[4] = target: T5, glucocorticoid receptor (GR) (Homo sapiens, UniProt P04150); test: as above; assay type: cell-based; conditions: DU145 cells
T5 construct: expressed in transfected cells; host or cells: DU145
T5 sequence (P04150 1-777): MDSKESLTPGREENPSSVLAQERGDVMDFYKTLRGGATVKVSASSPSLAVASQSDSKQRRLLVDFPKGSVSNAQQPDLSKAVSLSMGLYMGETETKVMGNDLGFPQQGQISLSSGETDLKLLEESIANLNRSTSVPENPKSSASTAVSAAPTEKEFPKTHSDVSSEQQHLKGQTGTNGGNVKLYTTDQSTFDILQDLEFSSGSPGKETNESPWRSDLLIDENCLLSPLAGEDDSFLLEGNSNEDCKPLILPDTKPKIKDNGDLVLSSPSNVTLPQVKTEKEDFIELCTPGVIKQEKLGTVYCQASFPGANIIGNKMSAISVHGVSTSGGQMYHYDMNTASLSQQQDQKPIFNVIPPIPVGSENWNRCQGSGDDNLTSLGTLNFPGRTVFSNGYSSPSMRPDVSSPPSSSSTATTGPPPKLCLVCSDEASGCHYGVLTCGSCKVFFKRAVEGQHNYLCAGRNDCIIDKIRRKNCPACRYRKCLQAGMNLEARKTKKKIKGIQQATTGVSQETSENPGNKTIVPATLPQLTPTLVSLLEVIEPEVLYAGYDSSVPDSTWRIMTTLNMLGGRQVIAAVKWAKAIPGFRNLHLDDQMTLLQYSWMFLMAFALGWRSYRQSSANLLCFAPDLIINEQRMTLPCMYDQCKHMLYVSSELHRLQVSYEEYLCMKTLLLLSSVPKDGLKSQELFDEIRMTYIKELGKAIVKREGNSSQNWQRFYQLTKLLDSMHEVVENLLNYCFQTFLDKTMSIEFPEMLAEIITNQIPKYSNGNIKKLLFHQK

In the case of “Rb: retinoblastoma protein, SEQ ID NO:8, expressed by transfection as AR coactivator”, the “induced CAT activity in mammalian two-hybrid assay (interaction with AR)” value (AR [1]; DU145, Rb with near full length AR (aa 36-918)) is reported as 3 fold and the “AR transcriptional activity induction with cotransfected coactivator” value (wtAR) is reported as 21 fold.

In the case of TGFβ, the “induction of ARA55 mRNA” value (ARA55 mRNA) is reported as 2 fold and the “increase of AR transcriptional activity” value (AR [2]) is reported as 70%.

With “ARA70: the first identified AR coactivator, used as positive control [reference compound]” the “AR transcriptional activity induction with cotransfected coactivator” value (wtAR) was 36 fold.

In the case of `C[C@]12CC[C@@H]3c4ccc(O)cc4CC[C@H]3[C@@H]1CC[C@@H]2O` [E2, 17 β estradiol], the “response of Art877a transactivation to ligand” value (mARt877s; absence of ARA54, E2 10^-9-10^-7 M, HF 10^-7-10^-5 M) is reported as “responded” and the “response of LNCaP mAR to ligand compared to wtAR” value (mARt877s; compared to wtAR) is reported as “responded much better”.

B1: ARA54: 54 kDa androgen receptor coactivator, 474 aa, SEQ ID NO:2, expressed by transfection (protein)
chain: MSSEDREAQEDELLALASIYDGDEFRKAESVQGGETRIYLDLPQNFKIFVSGNSNECLQNSGFEYTICFLPPLVLNFELPPDYPSSSPPSFTLSGKWLSPTQLSALCKHLDNLWEEHRGSVVLFAWMQFLKEETLAYLNIVSPFELKIGSQKKVQRRTAQASPNTELDFGGAAGSDVDQEEIVDERAVQDVESLSNLIQEILDFDQAQQIKCFNSKLFLCSICFCEKLGSECMYFLECRHVYCKACLKDYFEIQIRDGQVQCLNCPEPKCPSVATPGQVKELVEAELFARYDRLLLQSSLDLMADVVYCPRPCCQLPVMQEPGCTMGICSSCNFAFCTLCRLTYHGVSPCKVTAEKLMDLRNEYLQADEANKRLLDQRYGKRVIQKALEEMESKEWLEKNSKSCPCCGTPIEKLDGCNKMTCTGCMQYFCWICMGSLSRANPYKHFNDPGSPCFNRLFYAVDVDDDIWEDEVED
modifications: Homo sapien
With B1 the “effect of ARA54 on ER transcriptional activity” value (estrogen receptor (ER)) was “less than 2 fold”, the “induction of PR transcriptional activity by ARA54” value [3] was 3–5 fold and the “effect of ARA54 on GR transcriptional activity” value [4] was “less than 2 fold”. The “CAT activity on coexpression of AR with ARA54” value (AR [1]; DU145, 10^-8 M DHT) was “significantly induced”, the “enhancement of wtAR transactivation by coexpressed ARA54” value (wtAR; DHT 10^-10 to 10^-8 M) was 3–5 fold and the “induction of AR transcriptional activity by ARA54” value (wtAR; DU145 cells, cognate ligand) was “up to 6 fold”.
